B1: Adhesion G-protein coupled receptor G1 (Mus musculus), Q8K209 (parent)
chain: MAVQVLRQMVYFLLSLFSLVQGAHSGSPREDFRFCGQRNQTQQSTLHYDQSSEPHIFVWNTEETLTIRAPFLAAPDIPRFFPEPRGLYHFCLYWSRHTGRLHLRYGKHDYLLSSQASRLLCFQKQEQSLKQGAPLIATSVSSWQIPQNTSLPGAPSFIFSFHNAPHKVSHNASVDMCDLKKELQQLSRYLQHPQKAAKRPTAAFISQQLQSLESKLTSVSFLGDTLSFEEDRVNATVWKLPPTAGLEDLHIHSQKEEEQSEVQAYSLLLPRAVFQQTRGRRRDDAKRLLVVDFSSQALFQDKNSSQVLGEKVLGIVVQNTKVTNLSDPVVLTFQHQPQPKNVTLQCVFWVEDPASSSTGSWSSAGCETVSRDTQTSCLCNHLTYFAVLMVSSTEVEATHKHYLTLLSYVGCVISALACVFTIAAYLCSRRKSRDYTIKVHMNLLSAVFLLDVSFLLSEPVALTGSEAACRTSAMFLHFSLLACLSWMGLEGYNLYRLVVEVFGTYVPGYLLKLSIVGWGFPVFLVTLVALVDVNNYGPIILAVRRTPERVTYPSMCWIRDSLVSYVTNLGLFSLVFLFNLAMLATMVVQILRLRPHSQNWPHVLTLLGLSLVLGLPWALVFFSFASGTFQLVILYLFSIITSFQGFLIFLWYWSMRFQAQGGPSPLKNNSDSAKLPISSGSTSSSRI

Variants of: B1
Conditions: with co3a1_mouse Col3a1, P08121
Chain of co3a1_mouse Col3a1, P08121 (P08121 whole entry): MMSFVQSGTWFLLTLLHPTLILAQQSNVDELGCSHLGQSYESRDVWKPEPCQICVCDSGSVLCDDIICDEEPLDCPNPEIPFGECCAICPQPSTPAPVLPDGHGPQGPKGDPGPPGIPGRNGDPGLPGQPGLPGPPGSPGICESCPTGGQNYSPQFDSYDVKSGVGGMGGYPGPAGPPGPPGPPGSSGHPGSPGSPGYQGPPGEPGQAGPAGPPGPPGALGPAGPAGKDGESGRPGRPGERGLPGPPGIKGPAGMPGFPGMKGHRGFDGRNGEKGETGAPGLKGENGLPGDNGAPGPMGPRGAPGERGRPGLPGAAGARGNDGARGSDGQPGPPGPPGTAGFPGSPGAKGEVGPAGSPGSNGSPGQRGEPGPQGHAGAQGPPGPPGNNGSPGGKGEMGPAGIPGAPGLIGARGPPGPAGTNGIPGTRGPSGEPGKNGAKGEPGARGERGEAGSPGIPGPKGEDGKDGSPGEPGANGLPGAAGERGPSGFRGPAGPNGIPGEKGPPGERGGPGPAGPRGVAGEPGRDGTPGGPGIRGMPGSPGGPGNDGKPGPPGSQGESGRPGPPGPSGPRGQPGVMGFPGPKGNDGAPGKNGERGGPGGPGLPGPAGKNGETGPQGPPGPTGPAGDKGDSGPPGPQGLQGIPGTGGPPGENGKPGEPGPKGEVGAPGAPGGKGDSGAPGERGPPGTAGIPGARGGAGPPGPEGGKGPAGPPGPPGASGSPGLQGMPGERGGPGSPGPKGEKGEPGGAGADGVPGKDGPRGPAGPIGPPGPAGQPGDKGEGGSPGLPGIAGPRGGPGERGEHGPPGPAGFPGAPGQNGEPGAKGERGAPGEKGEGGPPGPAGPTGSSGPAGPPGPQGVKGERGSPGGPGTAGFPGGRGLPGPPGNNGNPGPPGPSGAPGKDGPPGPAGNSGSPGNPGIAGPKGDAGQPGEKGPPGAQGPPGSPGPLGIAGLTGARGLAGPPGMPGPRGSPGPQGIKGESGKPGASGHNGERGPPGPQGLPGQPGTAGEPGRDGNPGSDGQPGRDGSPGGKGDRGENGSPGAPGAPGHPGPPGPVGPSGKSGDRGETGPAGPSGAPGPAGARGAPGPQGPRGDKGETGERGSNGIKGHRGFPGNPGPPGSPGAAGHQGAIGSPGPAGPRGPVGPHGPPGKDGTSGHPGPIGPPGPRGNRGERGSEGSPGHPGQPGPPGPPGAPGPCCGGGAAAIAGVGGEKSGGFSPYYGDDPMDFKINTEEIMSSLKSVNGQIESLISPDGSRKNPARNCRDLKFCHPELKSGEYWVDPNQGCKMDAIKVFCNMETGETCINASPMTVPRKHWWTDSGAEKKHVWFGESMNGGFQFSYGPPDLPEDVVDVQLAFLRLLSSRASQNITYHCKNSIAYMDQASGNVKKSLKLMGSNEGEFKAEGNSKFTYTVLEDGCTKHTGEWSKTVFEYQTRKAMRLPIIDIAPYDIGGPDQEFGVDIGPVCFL

| Variant | effect of a mutation on the interaction |
| --- | --- |
| Y88C | disrupting interaction |
| C91S | disrupting interaction |
| R38Q | disrupting interaction |
| R38W | disrupting interaction |

Reference: IntAct's records for PubMed 22238662
